Measured values: publication PMC4465122 (EBioMedicine, 2015)

Molecular target: the molecule itself
Assay: cross-linking

Protein | stoichiometry N
recombinant human prolidase (rhPEPD) (enzyme) MAAATGPSFWLGNETLKVPLALFALNRQRLCERLRKNPAVQAGSIVVLQGGEETQRYCTDTGVLFRQESFFHWAFGVTEPGCYGVIDVDTGKSTLFVPRLPASHATWMGKIHSKEHFKEKYAVDDVQYVDEIASVLTSQKPSVLLTLRGVNTDSGSVCREASFDGISKFEVNNTILHPEIVECRVFKTDMELEVLRYTNKISSEAHREVMKAVKVGMKEYELESLFEHYCYSRGGMRHSSYTCICGSGENSAVLHYGHAGAPNDRTIQNGDMCLFDMGGEYYCFASDITCSFPANGKFTADQKAVYEAVLRSSRAVMGAMKPGVWWPDMHRLADRIHLEELAHMGILSGSVDAMVQAHLGAVFMPHGLGHFLGIDVHDVGGYPEGVERIDEPGLRSLRTARHLQPGMVLTVEPGIYFIDHLLDEALADPARASFLNREVLQRFRGFGGVRIEEDVVVTDSGIELLTCVPRTVEEIEACMAGCDKAFTPFSGPK | 2
rhPEPD^G278D, enzymatically inactive mutant of recombinant human prolidase (enzyme) MAAATGPSFWLGNETLKVPLALFALNRQRLCERLRKNPAVQAGSIVVLQGGEETQRYCTDTGVLFRQESFFHWAFGVTEPGCYGVIDVDTGKSTLFVPRLPASHATWMGKIHSKEHFKEKYAVDDVQYVDEIASVLTSQKPSVLLTLRGVNTDSGSVCREASFDGISKFEVNNTILHPEIVECRVFKTDMELEVLRYTNKISSEAHREVMKAVKVGMKEYELESLFEHYCYSRGGMRHSSYTCICGSGENSAVLHYGHAGAPNDRTIQNGDMCLFDMDGEYYCFASDITCSFPANGKFTADQKAVYEAVLRSSRAVMGAMKPGVWWPDMHRLADRIHLEELAHMGILSGSVDAMVQAHLGAVFMPHGLGHFLGIDVHDVGGYPEGVERIDEPGLRSLRTARHLQPGMVLTVEPGIYFIDHLLDEALADPARASFLNREVLQRFRGFGGVRIEEDVVVTDSGIELLTCVPRTVEEIEACMAGCDKAFTPFSGPK | 2
